Measured values reported in patent US20110135634A1, “METHODS OF INHIBITING INFECTION BY DIVERSE SUBTYPES OF DRUG-RESISTANT HIV-1” (priority 2007, published 2011).
Where “and” joins values, the source holds several entries; their conditions need not be identical. Equal entries are not always repeated.

Experiments:
[1] = single administration of TAK-652 solution, healthy male volunteers; cited from earlier work
[2] = in vivo; cited from earlier work
CD4 (human) = CD4 (human) (UniProt P01730); assay: cell-based or functional assay
HIV-1 = conditions: dose-dependent, treatment period of 10-14 days; cited from earlier work
[3] = system: reporter viruses pseudotyped with HIV-1JR-FL envelope (U87-CD4-CCR5 cells); assay: microbe, parasite or virus in culture; format: cell-based
[4] = system: reporter viruses pseudotyped with HIV-1SF162 envelope (U87-CD4-CCR5 cells); assay: HIV-1 pseudovirus assay, SF162 envelope; format: cell-based; conditions: Human immunodeficiency virus 1, U87/CD4/CCR5
Description: A self-inactivating (SIN) vector was derived from the pNL4-3ΔEnv-luciferase vector (Dragic et al. 1996) by deleting 507 basepairs in the U3 region of the 3′ long terminal repeat (LTR) so as to remove the TATA box and transcription factor binding sites. The human cytomegalovirus promoter was inserted upstream of the luciferase (luc) gene to enable expression of luciferase following integration.
Reporter viruses pseudotyped with HIV-1JR-FL or HIV-1SF162 envelopes were generated by cotransfection of 293T cells with the SIN vector and the appropriate pcDNA env-expressing vector as previously described (Dragic et al. 1996). […] Cultures were incubated for 72 h at 37° C. in DMEM containing 10% fetal bovine serum, […] puromycin, 0.3 mg/mL geneticin, antibiotics, and 0.5% DMSO. Luciferase activity (relative light units or RLU) was measured using. BrightGlo reagent (Promega, Madison, Wis.) according to the manufacturer's instructions.
Experimental design and data analysis were based on the combination index (CI) method (Chou et al. 1991; Chou et al. 1984). […] The mutually exclusive CI formula was used for combinations of CCR5 inhibitors, while the mutually non-exclusive formula was utilized for combinations of inhibitors to distinct targets (Chou et al. 1991). Each test was conducted 4-12 times. Synergy, additivity and antagonism are indicated by CI<1, CI=1 and CI>1, respectively.

[5] = system: HIV-1 Env-mediated fusion (HeLa-EnvJRFL and CEM NKR-CCR5 cells); assay: RET cell-cell fusion assay, combination testing (Part II, Example 1)
Description: Serial dilutions of small molecules were conducted in DMSO. Subsequent dilutions were conducted in medium to achieve a fmal DMSO concentration in the assay of 0.5%. Peptides and mAbs were diluted in PBS in the absence of DMSO.
Briefly, fluorescein octadecyl ester (F18; Molecular Probes, Eugene, Oreg.; 5 mg/ml in ethanol), was diluted 1:800 in DMEM labeling medium (DMEM; Invitrogen, Carlsbad, Calif.) with 10% fetal bovine serum (FBS; HyClone, Logan, Utah) and adjusted to an A506 of 0.34±10%. […] Both dyes were further diluted 2-fold by addition to cells in T75-cm^2 flasks. HeLa-EnvJRFL and CEM NKR-CCR5 cells were incubated overnight in F18- and R18-containing culture medium, respectively. The following day, medium from HeLa-EnvJRFL cells was removed and 10 ml of 0.5 mM EDTA was added and incubated at 37° C. for 5 min. EDTA was removed and the flask was returned to the incubator for another 5 min followed by striking of the flask to dislodge cells. […] Suspension CEM NKR-CCR5 cells were added directly to a separate 50-ml conical centrifuge tube. […] Ten μl of each cell type (15,000 cells) were seeded into wells of a 384-well plate. Inhibitor compounds were added immediately thereafter to bring the final well volume to 40 μl, and the plates were incubated for 4 h at 37° C. Compounds were tested individually and in combination at a fixed molar ratio or mass ratio over a range of serial dilutions.
The “% RET” was calculated according to the following formula after subtraction of background (blank) readings:
The “% Inhibition” was calculated according to the following formula: […]
IC50 values were generated for all combinations as described above. Combination Index (CI) and Dose Reduction (DR) values were calculated according to the following formulas:
Combinations with CI<1 are determined to be synergistic, whereas combinations with CI>1 are determined to be antagonistic. […]
In this assay, effector cells are labeled with the F18 dye and target cells with the R18 dye. […] Drug susceptibility is measured by adding serial concentrations of drugs to target cells prior to addition of effector cells.

[6] = target: CCR5 (CC-chemokine receptor 5) (human) (UniProt P51681); assay: cell-based or functional assay
[7] = target: CCR5 (CC-chemokine receptor 5) (human) (UniProt P51681); assay: flow cytometry competition; unlabeled PRO 140 pre-incubated with CEM.NKR-CCR5 cells, then 5 nM PRO 140-PE as competitor; MFI read-out
[8] = target: CCR5 (CC-chemokine receptor 5) (human) (UniProt P51681); assay: flow cytometry competition; unlabeled PRO 140 pre-incubated with CEM.NKR-CCR5 cells, then 5 nM PRO 140-PE as competitor; percent cells gated read-out
[9] = target: CCR5 (CC-chemokine receptor 5) (human) (UniProt P51681); assay: displacement of labelled ligand; PRO 140 pre-incubated with CEM.NKR-CCR5 cells, then 2 nM 3H-UK-427,857 (small molecule) as competitor; scintillation counting

## CCCCOCCOc1ccc(-c2ccc3c(c2)/C=C(/C(=O)Nc2ccc([S@@+]([O-])Cc4cncn4CCC)cc2)CCCN3CC(C)C)cc1.CS(=O)(=O)O [TAK-652]
[1]
  safety and tolerability: safe and well tolerated
[2]
  oral bioavailability: orally bioavailable

## anti-CD4 mAb Leu-3A (antibody)
CD4 (human)
  HIV-1 Env-mediated cell-cell fusion, RET assay: 500 ng/mL

## CCO/N=C(\c1ccc(Br)cc1)C1CCN(C2(C)CCN(C(=O)c3c(C)cc[n+]([O-])c3C)CC2)CC1 [SCH-C]
HIV-1
  mean reductions in HIV-1 RNA levels: ~1 log10

## Cc1nnc(C(C)C)n1C1CC2CCC(C1)N2CC[C@H](NC(=O)C1CCC(F)(F)CC1)c1ccccc1 (stereo partly shown) [UK-427,857, reference compound]
[3]; HIV-1 envelope JRFL, 1st inhibitor alone
  IC90: 46 nM
[3]; Human immunodeficiency virus 1, U87/CD4/CCR5
  IC50: 7.4 nM
[4]
  IC50: 0.87 nM
  IC90: 13 nM
[5]; 2D7 in combination with the labelled inhibitor, 1:1 molar ratio
  Mean Dose Reduction (2D7): 2.45 ± 0.12
[5]; PRO 140 in combination with the labelled inhibitor, 1:1 molar ratio, Combination Index at IC50
  Mean CI: 0.59 ± 0.04
[5]; labelled inhibitor in combination with 2D7, 1:1 molar ratio
  Mean Dose Reduction (Cpd in combination): 5.73 ± 0.54

B1: PRO 140, humanized IgG4,κ anti-CCR5 monoclonal antibody (antibody, INN chains, looked up, V domains shown)
VH: EVQLVESGGGLVKPGGSLRLSCAASGYTFSNYWIGWVRQAPGKGLEWIGDIYPGGNYIRNNEKFKDKTTLSADTSKNTAYLQMNSLKTEDTAVYYCGSSFGSNYVFAWFTYWGQGTLVTVSS
VL: DIVMTQSPLSLPVTPGEPASISCRSSQRLLSSYGHTYLHWYLQKPGQSPQLLIYEVSNRFSGVPDRFSGSGSGTDFTLKISRVEAEDVGVYYCSQSTHVPLTFGQGTKVEIK
[6]
  IC50, HIV-1 reporter virus pseudotyped with JRFL envelope, U87-CD4-CCR5 cells: 2.2 nM
  IC50, HIV-1 reporter virus pseudotyped with SF162 envelope, U87-CD4-CCR5 cells: 1.3 nM
  IC50, PhenoSense HIV Entry assay, U87-CD4/CCR5 cells, virus DUAL: 0.347 µg/mL
  IC50, PhenoSense HIV Entry assay, U87-CD4/CCR5 cells, virus JRCSF: 0.574 µg/mL
  IC50, PhenoSense HIV Entry assay, U87-CD4/CCR5 cells, virus Panel 1 (subtype A): 0.199 µg/mL
  IC50, PhenoSense HIV Entry assay, U87-CD4/CCR5 cells, virus Panel 2 (subtype A): 0.305 µg/mL
  IC50, PhenoSense HIV Entry assay, U87-CD4/CCR5 cells, virus Panel 3 (subtype A): 0.414 µg/mL
  IC50, PhenoSense HIV Entry assay, U87-CD4/CCR5 cells, virus Panel 4 (subtype A): 0.508 µg/mL
  IC50, PhenoSense HIV Entry assay, U87-CD4/CCR5 cells, virus Panel 5 (subtype C): 0.356 µg/mL
  IC50, PhenoSense HIV Entry assay, U87-CD4/CCR5 cells, virus Panel 6 (subtype C): 0.318 µg/mL
  IC50, PhenoSense HIV Entry assay, U87-CD4/CCR5 cells, virus Panel 7 (subtype C): 0.0955 µg/mL
  IC50, PhenoSense HIV Entry assay, U87-CD4/CCR5 cells, virus Panel 8 (subtype C): 0.527 µg/mL
  IC50, PhenoSense HIV Entry assay, U87-CD4/CCR5 cells, virus Panel 9 (subtype D): 0.679 µg/mL
  IC50, PhenoSense HIV Entry assay, U87-CD4/CCR5 cells, virus Panel 10 (subtype D): 0.59 µg/mL
  IC50, PhenoSense HIV Entry assay, U87-CD4/CCR5 cells, virus Panel 11 (subtype D): 0.365 µg/mL
  IC50, PhenoSense HIV Entry assay, U87-CD4/CCR5 cells, virus Panel 12 (subtype D): 0.238 µg/mL
  IC50, PhenoSense HIV Entry assay, U87-CD4/CCR5 cells, virus Panel 13 (subtype F): 0.788 µg/mL
  IC50, PhenoSense HIV Entry assay, U87-CD4/CCR5 cells, virus Panel 14 (subtype F): 0.657 µg/mL
  IC50, PhenoSense HIV Entry assay, U87-CD4/CCR5 cells, virus Panel 15 (subtype F): 0.332 µg/mL
  IC50, PhenoSense HIV Entry assay, U87-CD4/CCR5 cells, virus Panel 16 (subtype F): 0.342 µg/mL
  IC50, PhenoSense HIV Entry assay, U87-CD4/CCR5 cells, virus Panel 17 (subtype G): 0.26 µg/mL
  IC50, PhenoSense HIV Entry assay, U87-CD4/CCR5 cells, virus Panel 18 (subtype G): 1.43 µg/mL
  IC50, PhenoSense HIV Entry assay, U87-CD4/CCR5 cells, virus Panel 19 (subtype G): 0.384 µg/mL
  IC50, PhenoSense HIV Entry assay, U87-CD4/CCR5 cells, virus Panel 20 (subtype G): 0.432 µg/mL
  IC50, PhenoSense HIV Entry assay, U87-CD4/CCR5 cells, virus Panel 21 (subtype J): 0.525 µg/mL
  IC50, PhenoSense HIV Entry assay, U87-CD4/CCR5 cells, virus Panel 22 (subtype J): 0.436 µg/mL
  IC50, PhenoSense HIV Entry assay, U87-CD4/CCR5 cells, virus Panel 23 (subtype J): 0.269 µg/mL
  IC50, PhenoSense HIV Entry assay, U87-CD4/CCR5 cells, virus Panel 24 (subtype B): 0.547 µg/mL
  IC50, PhenoSense HIV Entry assay, U87-CD4/CCR5 cells, virus Panel 25 (subtype B): 0.519 µg/mL
  IC50, PhenoSense HIV Entry assay, U87-CD4/CCR5 cells, virus Panel 26 (subtype B): 0.442 µg/mL
  IC50, PhenoSense HIV Entry assay, U87-CD4/CCR5 cells, virus Panel 27 (subtype B): 0.575 µg/mL
  IC50, PhenoSense HIV Entry assay, U87-CD4/CCR5 cells, virus Panel 31 JRCSF-N43D: 0.67 µg/mL
  IC90, HIV-1 reporter virus pseudotyped with JRFL envelope, U87-CD4-CCR5 cells: 28 nM
  IC90, HIV-1 reporter virus pseudotyped with SF162 envelope, U87-CD4-CCR5 cells: 20 nM
  IC90, PhenoSense HIV Entry assay, U87-CD4/CCR5 cells, virus DUAL: 1.56 µg/mL
  IC90, PhenoSense HIV Entry assay, U87-CD4/CCR5 cells, virus JRCSF: 18.3 µg/mL
  IC90, PhenoSense HIV Entry assay, U87-CD4/CCR5 cells, virus Panel 1 (subtype A): 1.69 µg/mL
  IC90, PhenoSense HIV Entry assay, U87-CD4/CCR5 cells, virus Panel 2 (subtype A): 4.51 µg/mL
  IC90, PhenoSense HIV Entry assay, U87-CD4/CCR5 cells, virus Panel 3 (subtype A): 3.38 µg/mL
  IC90, PhenoSense HIV Entry assay, U87-CD4/CCR5 cells, virus Panel 4 (subtype A): 3.45 µg/mL
  IC90, PhenoSense HIV Entry assay, U87-CD4/CCR5 cells, virus Panel 5 (subtype C): 6.52 µg/mL
  IC90, PhenoSense HIV Entry assay, U87-CD4/CCR5 cells, virus Panel 6 (subtype C): 3.37 µg/mL
  IC90, PhenoSense HIV Entry assay, U87-CD4/CCR5 cells, virus Panel 7 (subtype C): 0.447 µg/mL
  IC90, PhenoSense HIV Entry assay, U87-CD4/CCR5 cells, virus Panel 8 (subtype C): 7.25 µg/mL
  IC90, PhenoSense HIV Entry assay, U87-CD4/CCR5 cells, virus Panel 9 (subtype D): 15.3 µg/mL
  IC90, PhenoSense HIV Entry assay, U87-CD4/CCR5 cells, virus Panel 10 (subtype D): 5.65 µg/mL
  IC90, PhenoSense HIV Entry assay, U87-CD4/CCR5 cells, virus Panel 11 (subtype D): 4.33 µg/mL
  IC90, PhenoSense HIV Entry assay, U87-CD4/CCR5 cells, virus Panel 12 (subtype D): 2.08 µg/mL
  IC90, PhenoSense HIV Entry assay, U87-CD4/CCR5 cells, virus Panel 13 (subtype F): 16.7 µg/mL
  IC90, PhenoSense HIV Entry assay, U87-CD4/CCR5 cells, virus Panel 14 (subtype F): 21.9 µg/mL
  IC90, PhenoSense HIV Entry assay, U87-CD4/CCR5 cells, virus Panel 15 (subtype F): 5.88 µg/mL
  IC90, PhenoSense HIV Entry assay, U87-CD4/CCR5 cells, virus Panel 16 (subtype F): 14 µg/mL
  IC90, PhenoSense HIV Entry assay, U87-CD4/CCR5 cells, virus Panel 17 (subtype G): 2.41 µg/mL
  IC90, PhenoSense HIV Entry assay, U87-CD4/CCR5 cells, virus Panel 18 (subtype G): 50.7 µg/mL
  IC90, PhenoSense HIV Entry assay, U87-CD4/CCR5 cells, virus Panel 19 (subtype G): 3.51 µg/mL
  IC90, PhenoSense HIV Entry assay, U87-CD4/CCR5 cells, virus Panel 20 (subtype G): 5.65 µg/mL
  IC90, PhenoSense HIV Entry assay, U87-CD4/CCR5 cells, virus Panel 21 (subtype J): 6.06 µg/mL
  IC90, PhenoSense HIV Entry assay, U87-CD4/CCR5 cells, virus Panel 22 (subtype J): 9.24 µg/mL
  IC90, PhenoSense HIV Entry assay, U87-CD4/CCR5 cells, virus Panel 23 (subtype J): 3.3 µg/mL
  IC90, PhenoSense HIV Entry assay, U87-CD4/CCR5 cells, virus Panel 24 (subtype B): 10.1 µg/mL
  IC90, PhenoSense HIV Entry assay, U87-CD4/CCR5 cells, virus Panel 25 (subtype B): 12.2 µg/mL
  IC90, PhenoSense HIV Entry assay, U87-CD4/CCR5 cells, virus Panel 26 (subtype B): 8.91 µg/mL
  IC90, PhenoSense HIV Entry assay, U87-CD4/CCR5 cells, virus Panel 27 (subtype B): 6.5 µg/mL
  IC90, PhenoSense HIV Entry assay, U87-CD4/CCR5 cells, virus Panel 31 JRCSF-N43D: 16.1 µg/mL
  IC90, neutralization of primary R5 HIV-1 isolates, whole virus replication assay: 3 µg/mL and 4 µg/mL
[7]
  EC50: 2.5 nM
[8]
  EC90: 17 nM
[9]
  EC50: 14 nM
